The values that follow come from publication PMC6167206 (Molecular microbiology, 2018).

This series deals with the molecule itself. In words: cross-linking.

Usually stoichiometry N stands for the number of molecules, sites or subunits per partner or assembly.

B1: AcpA-His (natural protein)
chain: MEKDISRKIDLLNILIEEKRWFTLFELEKNLNCSSKTIRKDISIINDLLPKTIFIHSKKGKGVKLSLPQNQSISEAISNLLKKSLTFLAIQQLLEERSNTVTSLADKLYLPISSTNIVLKRVSKYIKKFGLSLEKKPLRIVGDEFQIILMFSERYLESYPDTEWPFTEYKEEMLIDYINYIEEKLEIVFYSNDKRRMAFIMTILFKRIKQGHKVKFSEWIIKETMESIYYKKIFEGKNVIKVNKNRSLNIEEQVLLVIMVKLSRYVSKDENNLKQEELVLYKEGESTTYTYVKNFISILEQELKIDLNNNEEFVYGMIEYCREAFHILKFIPILKAPEKDTCKYIKKHYEETFYLVKRAYNKWGAEMKLTDIPDEEIAKVTMRIVAIGKQHNINRKKVLLITGEGKSWEEYMKSRINKRYGDQLKFVGGHAKILNGNTDNIDNIDIDFIITTVPLNFSWKSIVYVSPILQERDFYEIGIFASK
For the protein B1, the “stoichiometry N” value amounted to 2.
